Source: the domain aggregation screens of Martell et al. (2025)

test: soluble fraction after stress (log2 fold change); higher = more stays soluble; pooled small domains, quantitative proteomics; details: stress: 50 degC
In short: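 The stress applied to every library was 50°C. These custom libraries of small protein domains were pooled and measured at high throughput with quantitative proteomics as the read-out. Aggregation propensity is expressed as the base-two logarithm of the fold change in how much of each protein remains soluble. The higher the value, the more of that protein stays in solution.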

Sequence	soluble fraction (log2)
HMSTDKIDIVSSAILSSLKDNDGFIGLTDKSPPPEIYTAFRVSKKVFKQAIGALYKQRRITLESSGIRLIS	-0.193
HMNDILETISNQIRDLRVSKKITQQELAERTNLSVPYISQIENGHRNISLETFIKIVDALDIPLSDFFLP	-1.03
HMEAQFIDINDVRIGTYVYVDLGWIKHPFALNSFKITSRDQIDTLIKLGVKRIRWSPEKSDS	-1.3
HMDIGNKIKELRTEQKMTQSDLAERLGVTKSSISSYENGSRLPSYDILLKIARIFKVSTDILLG	0.514
HMGVAASEVHREKKESSLQWRQSYNVATDQRRQGKTYKEITEFLNGAELKNSKGGTWSISGVRKMLM	0.271
HMKPEDIALLEEIRDLLKEKKSVIVNLEYVNKDVARRIVDFISGGVFALNGHIQKVSNSIFLVAPMN	0.00619
HMSHYEYKVGDRVNLLDYDDFGILYKEKDNFYNVVVYYNGEFVEVNVKRITLEVAAKELYPEGYDLSTLFV	-4.14
HMAKRQATIVYEGTNVRSGPSTSSAIVKRTGKGESYPIVSTKGDWYEIKLSNGDSAYVASWVVQTVD	-0.328
HMLEQSYYEKTDEIIELHGAKASSLIPVMQDVQAEYRYLPGELLSYIADKLGIPLAKAYSVATFYENFS	-0.358
HMARTLSVTVSENYANMRLDSFLFESGLYPSRSKAVKQIESGKVFVNGNEPTKKTIVVANDFIVYEEYAEE	-1.06
HMKEVVVPDYFLKQLQKNKKAFITFNNFSPSHKREYVEWITEAKTEETKNRRMKSAIEWMSEGKSRNWKYI	0.0292
HMTAQLSITLNGETRRAAAGSIADLVRSLELDPAKVAVERNGLIVPRSTLAEVALGDGDVLEIVHFV	-0.186
HMHSDWITWWYLKDKRFDDDYSLWDRQPVHPEYFEVVKEFKAPPESNPGGLDEVKRILRTYIPDAFAP	-0.976
HMDEWDDGDKPKLKITLYADDDYYFASGFSKSSVSLSGSDGTVTSVSRSSSDTLIVYVTLDALD	-0.0264
HMTRLSSREAQVISLVRDGMTNQQIAERLELSPLTIKNHVQNILRKLDVSNRAQAVAKAVKARLI	-0.3
HMSKTDYKILYSDLNREDAKQLSLLLEDKKIPYQTSEDGKTIKIPEGMVNRFRMEVATMGVNF	0.00779
HMEIELHNLALNIKEFRKKNKLSQAELAEKLGVARTTIGYYERAEVEPNIYTLVQLSKLMNRSIDSLLGL	-1.3
HMFNVKAYEKAVKSYITKRKPLGEALDEEIMDELSVKFGIVDDALEDLFKQIQDAGISIVDKDGNPSPLAL	-0.619
HMTGSLRVTSSPSGAEIYVDEIYRGYTPLTIGSLSTGRHEVRLHLSGYQDYTRTVEIESGSQSSFSVTLT	0.0152

Sequence	soluble fraction (log2)
HMSSEYARFFSGNYYEVLGVAKNASYDEIKAAWKKLVKEYHPDLHPQRQEEFTKIIQKINEAYEYFKKMH	-0.0398
HMKSLLTHAEEFVRNNNGRWMLAETSSKESYSSKQNFYLRNNYSIISEIRDFYSVGDNLLVFGKFFT	0.0992
HMGVEALTPRQREVLALMAQGRSNGWIAAELGLSEKAIVQHTSNIYDMLGLAVDADDHRRVLAVIHYLT	-1.25
HMLSADLLDKIQRIDSLEQQGKYAQAEKEARALLSDPSITPSERASVQNILSSIARKKAAQAQ	0.11
HMKYKTKRDMILALMKKEILSGELKPRTRLLISEVASRYEVSEIPVREAFQVLIQEDLVRSTGAGFEVT	-0.744
HMTLVKRSAMVTAWSEFAGGRVNSKLIALQNGKAGDWIELENPQSGRKLRGRVQSDGSVRLGS	0.169
HMSKSPELMEKIKEFAEGYFRENGETPSNKTIAGAMGMGRSTVYYYLVDMAQRGMISYENGVISTEKIRKL	-1.32
HMSSWEVLAEPIQTVMRRYGVPGAYEKLKEVTRGKSLTAEALHALIRSLDIPQADKERLLALTPAAWA	-0.703
HMVESLTDRELQILSLAAKGYTNKAIAVQLGISDRTVQNHLANTFQKLNAESRTEAVMRAVSLGLISA	-0.213
HMIYKLIADRLKNRINSDEFEVGDALPSEKALAGELEVSVMTIRKALTLLESEKLIVKRHGSGSYVARKSN	-0.429
HMAPGASEVPDLTSLPAREALLRLTKLGLLPEMEGTGRLVRQQPAAGTRVPKGSKVHLVFEPG	0.0613
HMENYGEAITYIHGMIEDSSEKMLAASKALKVNANTLIKFMKDPYSVAAHIRDRIVENLANLEKAVKAI	0.075
HMETLSVRERMTSIISLLNKHEDIEFSKLFNISEGRLGVVVTFLALLELVKESLVDVIQNQPMSKLYIGKK	-0.311
HMSSKYLKIYNDIVGKIDSGIFEANTKLPSESQLMDEYNVSRYTVRKSLNLLEQNGYIEKSKGKGSFVLDM	-0.717
HMGGRSARVRRAVLDAVVELLGEGGVRAVTIAEVAKRSGVNASSIYRRWRSIDALILDAAQDL	-1.81
HMNPEAFIQTLKQILSTYEKNDPIYLQEIKADLVKKFRIEIPINALETYLKENGYSNIYLKR	-0.133
HMLSLGQQIRNHVLSRIESGEWPEGSRIPSEAKLVELLGASRMTIHIALRDLSAEGVLLRKQGAGTFVAPR	-2.47
HMRRNLSGEDTIVNRMAQWQYTQEQKNELHKMMDAGMPQEDILSVFYPEIKAEEMHRFLLAFQTAHNSG	-0.162
HMTKEEREKREKYEKLMKKAEELTAAKNHREVINVLGQAKAYATAAQLKEIEEKIKAATSEMNK	0.136
